Source: patent publication US5066590A, “Superoxide dismutase combined with a poly(alkylene oxide)” (Ajinomoto Co., Inc., priority 1985, dated 1991)

Key:
[1] = Survival of SOD activity in the blood circulation (plasma SOD activity after i.v. infusion); format: in vivo, Wister rats; details: for Half life (half survival time of SOD activity in the circulation) / Time to 30% residual activity: 20 mg SOD content/kg, femoral vein, rats
Procedure: For each stabilized SOD obtained in the Examples, the survival time in the blood circulation was measured as follows. Four Wister rats, seven weeks old and weighing 249 to 277 g, were used for each sample. The rats were infused with 20 mg of the sample (20 mg SOD content for the modified SOD; 5 mg per rat) dissolved in a saline solution (0.5 ml per rat) per kg of body weight through the femoral vein, and samples of blood, each 0.2 ml, were withdrawn 5, 15 and 30 minutes and 1, 2, 4, 8, 24 and 48 hours after the injection. Each blood sample was centrifuged, and the SOD activity of the plasma was determined by the method of J. M. McCord et al (J. Biol. Chem.,.244, No. 22, 6049-55, 1969).

superoxide dismutase [2] = details: starting material as purchased; cited from earlier work
superoxide dismutase [3] = molecular target: superoxide dismutase (Bos taurus, UniProt P00442); assay: SOD enzyme activity by the method of McCord et al (residual activity vs starting SOD); format: biochemical, bovine; human
Sequence of superoxide dismutase (Bos taurus, UniProt P00442) (P00442 2-152 limits assumed): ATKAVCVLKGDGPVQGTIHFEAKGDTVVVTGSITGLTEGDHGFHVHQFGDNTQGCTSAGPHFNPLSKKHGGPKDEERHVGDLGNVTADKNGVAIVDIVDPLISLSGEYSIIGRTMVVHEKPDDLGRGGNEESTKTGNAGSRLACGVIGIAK
Procedure: (§1) The residual activity was obtained by the following method.
(§2) The concentration of each enzyme was obtained by the absorption method as mentioned above, and the residual activity was calculated from a comparison in activity after the reaction.

superoxide dismutase [4] = assay: as above; format: biochemical, bovine; human
Procedure: as §1, §2

Lewis-lung tumor = assay: Prevention of tumor metastasis (Lewis-lung tumor implanted in mice); format: in vivo, C57BL-6 mice; details: for Inhibition ratio (%) (number of tumor colonies) / Inhibition ratio (%) (weight of lung tumor) / Mean number of tumor colonies / Mean weight of lung tumor: 2 mg/kg i.v.
Procedure: 10^6 cells of Lewis-lung tumor were implanted onto the foot of a number of C57BL-6 mice, and the implanted tumor was removed at seventh day after the transplantation (n=7).
The modified SOD (m-SOD) obtained in Example 1 was dissolved in a saline solution (5 mg by SOD content in 1 ml saline solution). To the mice, the modified SOD solution (2 mg by SOD content per kg) was injected intravenously once a day for 5 days from the seventh day or fourteenth day after the transplantation.
On the 22nd day after the transplantation, the lungs were taken out and the number of colonies of metastasizing cells was determined. The inhibition of the metastasis was evaluated by the decrease of the number of colonies and the weight of metastasizing lung tumor.

| Substance | Half life (half survival time of SOD activity in the circulation) [1] | Time to 30% residual activity [1] | specific activity of purchased SOD (superoxide dismutase [2]) | total activity (superoxide dismutase [3]; freeze-dried stabilized SOD) | total activity (superoxide dismutase [3]; reaction mixture after completion of the reaction) | residual activity (superoxide dismutase [3]; reaction mixture after completion of the reaction, in comparison with the original SOD) | Residual enzyme activity (%) (superoxide dismutase [4]; Table 1, stabilized SOD of Examples) | residual activity (superoxide dismutase [4]; isolated stabilized SOD, text of Examples) | activity in the blood circulation with time ([1]; FIG. 5) | Inhibition ratio (%) (number of tumor colonies) (Lewis-lung tumor; 5 injections after 7th day) | Inhibition ratio (%) (weight of lung tumor) (Lewis-lung tumor; 5 injections after 7th day) | Mean number of tumor colonies (Lewis-lung tumor; 5 injections after 7th day) | Mean weight of lung tumor (Lewis-lung tumor; 5 injections after 7th day) | Inhibition ratio (%) (number of tumor colonies) (Lewis-lung tumor; 5 injections after 14th day) | Inhibition ratio (%) (weight of lung tumor) (Lewis-lung tumor; 5 injections after 14th day) | Mean number of tumor colonies (Lewis-lung tumor; 5 injections after 14th day) | Mean weight of lung tumor (Lewis-lung tumor; 5 injections after 14th day) | number of colonies as compared to the non-treated mice (Lewis-lung tumor; "decreased below 40%") | weight of tumor as compared to the non-treated mice (Lewis-lung tumor; "decreased below 40%") |
| --- | --- | --- | --- | --- | --- | --- | --- | --- | --- | --- | --- | --- | --- | --- | --- | --- | --- | --- | --- |
| human SOD: SOD derived from human erythrocyte purchased from Sigma Co. | 6 min | 0.15 h | 2300 units/mg | – | – | – | – | – | – | – | – | – | – | – | – | – | – | – | – |
| bovine SOD: Superoxide dismutase derived from a bovine blood produced by Toyobo Co., Japan | 6 min | 0.15 h | 3000 units/mg | – | – | – | – | – | – | – | – | – | – | – | – | – | – | – | – |
| Example 1: bovine SOD amide-linked to α-carboxymethyl, ω-carboxymethoxy polyoxyethylene (molecular weight about 4000), 2.4 molecules per enzyme | 240 min | 10 h | – | 236000 units | 285000 units | 95±5% | 95% | 95% | rapidly reduces after a few hours from the adminstration, and then it reduces slowly | 65% | 66% | 10.5 | 0.15 g | 72% | 77% | 8.4 | 0.10 g | below 40% | below 40% |
